According to the DeepSol protein solubility set:

Assay: soluble on expression in E. coli; label from the status in PepcDB or PDB records

Sequence	soluble on expression in E. coli
MGSDKIHHHHHHMKVNILMSTYNGQEFIAQQIQSIQKQTFENWNLLIRDDGSSDETPKIIADFAKSDARIRFINADKRENFGVIKNFYTLLKYEKADYYFFSDQDDVWQPQKLELTLASVEKENNQIPLMVYTDLTVVDRDLQVLHDSMIKTQSHHANTSLLEELTENTVTGGTMMVNHCLAKQWKQCYDDLIMHDWYLALLAASLGKLIYLDETTELYRQHESNVLGARTWSKRLKNWLRPHRLVKKYWWLVTSSQQQASHLLELDLSAANKAIIQAYVTLLDQSFLNRIKWLKQYGFAKNRAFHTFVFKTLIITKFGYRRK	not soluble
MEHTKKFKSLNLHGFDRSTEDYGKRPFVLTAKLLEDQKKAIYGCAFNQYAGIDEEQAVATVGGSFLHMYSVPIDINNIELQWSCNFPTDKSSKVEREESLFTVTWCYDTYEAENDRNPFKVVTGGTLGHIYVIDYVSRKLSNRLRSVGWEINDIRTCPANSNLIVCASSDQSIRIHHIRNEACLIVIGGLECHAGTILSVDWSTDGDFILSCGFDHQLMEWDLSVKQVKEHLERACKALHQDKINVLTQSQDIPYVSKGTMRKSAVSRNIPDKEEDQLLELHRELIPRPSCLLPIYTPSSVSTDMHSDYVDCIRFLIGTNYALSKGCGNEKAIHFWRFGPPKGEVENRIHGNVLRPKSCTTKFRTMNVPSGSAWFIKFAVDPRRRWLVCGGAGGSVMFFDLRNNEETNPTHTCSVGSRTVRQASFSTCGRFLVLVTDEGFVCRFDRVSASVDAKDLFLMSSPTSSKDYSSPKHSFMLTVDSNLQSDKKKTFLNVQSSSSAGSTKHCQIPMSKDEYFETRGKLDSVDVIDQFRQRQQ	not soluble
MFYKEENFKKTEIGEIPEDWEIVELKDVCKKIKAGGTPKTSVEEYYKNGTIPFVKIEDITNSNKYLTNTKIKITEEGLNNSNAWIVPKNSVLFAMYGSIGETAINKIEVATNQAILGIIPKDNILESEFLYYILAKNKNYYSKLGMQTTQKNLNAQIVKSFKIPLPPLEEQKQIAKILTKIDEGIEIIEKSINKLERIKKGLMHKLLTKGIGHSRFKKSEIGEIPEDWEVFEIKDIFEVKTGTTPSTKKSEYWENGEINWITPLDLSRLNEKIYIGSSERKVTKIALEKCNLNLIPKGSIIISTRAPVGYVAVLTVESTFNQGCKGLFQKNNDSVNTEFYAYYLKFKKNLLENLSGGSTFKELSKSMLENFKIPLPPLEEQKQIAKILSSVDKSIELKKQKKEKLQRMKKKIMELLLTGKVRVKT	soluble
MHVLTLDLAPVTPKDAPLLHRVFHLSPSYFALIGMELPTLEDVVRDLQTLEVDPRRRAFLLFLGQEPVGYLDAKLGYPEAEDATLSLLLIREDHQGRGLGRQALERFAAGLDGVRRLYAVVYGHNPKAKAFFQAQGFRYVK	not soluble
MDESTCPIIEAIREVGKENDLLVIRLLSDNDLGFNQILKLAGKMSPKTLSVTLKRLTEKKIIYRDVVSTQPFRVKYRLTEKGQELRNVLNDLGQWGERWILNNESQSAVNTENYRLKS	not soluble
MMTVAAEIRGSNPEKLLAPVLSAFWDEDESWTLDVYRRHEGYEGLRKALAMAPDDLIAYVKESGLRGRGGAGFPTGMKWQFIPQGDGKPHYLVVNADESEPGTCKDIPLLFANPHSLIEGIVIACYAIRSSHAFIYLRGEVVPVLRRLHEAVREAYAAGFLGENILGSGLDLTLTVHAGAGAYICGEETALLDSLEGRRGQPRLRPPFPAVAGLYACPTVVNNVESIASVPAILNKGKDWFRSMGSEKSPGFTLYSLSGHVAGPGQYEAPLGITLRQLLDMSGGMRPGHRLKFWTPGGSSTPMFTDEHLDVPLDYEGVGAAGSMLGTKALQCFDETTCVVRAVTRWTEFYAHESCGKCTPCREGTYWLVQLLRDIEAGKGQMSDLDKLNDIADNINGKSFCALGDGAASPIFSSLKYFREEYEEHITGRGCPFDPAKSTAWADRTEVKALEHHHHHH	not soluble
MGSDKIHHHHHHMKFAVSSKGDQVSDTLKSKIQAYLLDFDMELDENEPEIVISVGGDGTLLYAFHRYSDRLDKTAFVGVHTGHLGFYADWVPHEIEKLVLAIAKTPYHTVEYPLLEVIVTYHENEREERYLALNECTIKSIEGSLVADVEIKGQLFETFRGDGLCLSTPSGSTAYNKALGGAIIHPSIRAIQLAEMASINNRVFRTVGSPLLLPSHHDCMIKPRNEVDFQVTIDHLTLLHKDVKSIRCQVASEKVRFARFRPFPFWKRVQDSFIGKGE	not soluble
AISGAKKYFYMQTPYFLPTEQILGAMQTAALAGVDIRLMLPEHADNRVTHLGSCSYLADVLRAGVKVYFYKKGFLHSKLMVSDDMLSTVGSTNLDFRSFEHNFEVNAFMYDMETALQMREIFLQDQRESTQIFLKSWEKRSSRQKAMESVVRLLAPLL	not soluble
VAIRNFDISKISGEWYSIFLASDVKEKIEENGSMRVFVDVIRALDNSSLYAEYQTKVNGECTEFPMVFDKTEEDGVYSLNYDGYNVFRISEFENDEHIILYLVNFDKDRPFQLFEFYAREPDVSPEIKEEFVKIVQKRGIVKENIIDLTKIDRCFQLRG	soluble
MSLGSIITLYSPVGGIGKSTIAIEMAKKLSDSNKKVLYLNLEDLQSTLVFFECSTSKNMSDFLYFIKERDENFKEVLKDIVLKDEESGINYFAPVDSVLDIEDLKVDDVKFMLQKLIEVNMYNYIIIDLSSTFNINYKTIFEMSSKIIVPIGQDKLSSVKLQNFLKQLDNLENFSFIQNKYKDNLETIIPHVLLREKKPIIQKIYYDEALESVSSLIYLKNRASTFLRCIDELIMKLLEGHHHHHH	soluble
MDNVTSSQLLSVRHQLAESAGLPRDQHEFVSSQAPQSLRNRYNNLYSHTQRTLDMADMQHRYMTGASGINPGMLPHENVDDMRSAITDWSDMREALQHAMGIHADIVDYKDDDDK	soluble
MADTEGTSSSIPTSTNSSRHRASRGRGGRFRQAPRQVGANTADNLDAAPLMNPRGGHRGGSGNKRGRGQKEATSASRLQMQPEANFTFNPNAATFNPAQSVLFDPSVPPPTIGASTHSNQNSRQQEPSQNRRRRGGQQNTQRRQLEIQEQRGDSHPQNQSRQNNRNQLNVDRIANQQNKSVQNPSRNPGNSRRGQGARRREQKEEPLTEEETKILADKPLREGLVYLLENNKYECAICYTRITTRQGVWSCKTCYHIFHISTGCITDWARSSRDKEGANTWRCPTCQTENETMPYNYYCFCGRMRNPNFRVGEVPHSCGETCGGARKFGCPHPCTELCHPGPCIECKLFTTKSCNCGKTKKSVRCGSDQEVMCETVCGKQLSCGQHNCERICHSGDCGECTVILEQDCFCGKTPKEVSCNPCAHEKYSCGSECDGMFSCGIHHCTKKCHDKECGECETGANRIRTCPCGRNTLQSLGVTRKKCTDMVPTCDSVCDKWLTCGTPGKNHHCREKCHEGPCPPCNLNTSVICRCGTSKGVIPCDEYLQIMKTTGEYLCTKRCRKKKSCGMHKCQEVCCIQDEHFCLQMCNKRLSCGIHTCENVCHAGQCRPCLQASFDEQFCHCGHTVRMPPIPCGARLPVCSQPCVRPHSCDHSVSHKCHGEQNCPPCTQLTEKMCYGGHRVRKNIPCHIDSVSCGVVCKKPLKCGVHVCQRTCHGEECEKEGEKCTKKCETIRELCEHPCALPCHEDSPCEPSPCKASVRISCECGRIKKDAPCCEVDKMILSKLEKEEEEKSESDGEEKVVKEGILKRSTSFSQLNCMKCDDECKKLERNRKVAEALEVDTDEYGMNKLAPTISFPCYLKEMVRTNIDFVKSVEKILIDLVIQILSGEAYHDTFRAHLPAMSIEKRRFVHEYANFFNIASESVDSPPKRSIVLTAVRGKSHQPLVLISDLVNYKGALKTPGPAVIRKDIMDQALSKKEETEGLMKPLRCTEKMVVRREARPMKEITAPIPLKQQNQFALLGSDVDSDDEESNVPTTSNLVSSPPKDWWKDEEEGWQKVQQKEYVVEVERDMTEDEIEAAKKLDEGPTWEDQCDEDAPATETSSAIESPAKEEPVAELLE	soluble
MSLNTPLAERLRPKKLEDYLSQHHLVGENGSLQQALKAGIIPSLILWGPPGIGKTTLATIIAEESKRPFYTLSAINSGVKDIREVIDKAKQSGGLFTQKNPILFIDEIHRFSKSQQDSLLGAVERGWVTLVGATTENPSFEVIPALLSRCQVYILKPFEKKDLILLLNRAINTDEILKKKNITLLETEALLRLSGGDARKLLNIFELIVTTENDKDVVVTNDMVLSKVQQNIVRYDKTGEQHYDIISAFIKSIRGSDPNAAVYWLARMIEGGEDVKFIARRLIIAAAEDIGNANPTALVIANNCFQAVTTIGYPEARIILSQCVTYLASSPKSNAAYMAIGKAQQLVKQTGDLSVPLPLRNAPTKLMKEIGYGNDYKYSHDYPGNFVQQEFLPKEISGTTLYEPTDNTREKAIKENLKAKWGSKYNYEGHHHHHH	soluble
MERIIQQTDYDALSCKLAAISVGYLPSSGLQRLSVDLSKKYTEWHRSYLITLKKFSRRAFGKVDKAMRSSFPVMNYGTYLRTVGIDAAILEFLVANEKVQVVNLGCGSDLRMLPLLQMFPHLAYVDIDYNESVELKNSILRESEILRISLGLSKEDTAKSPFLIDQGRYKLAACDLNDITETTRLLDVCTKREIPTIVISECLLCYMHNNESQLLINTIMSKFSHGLWISYDPIGGSQPNDRFGAIMQSNLKESRNLEMPTLMTYNSKEKYASRWSAAPNVIVNDMWEIFNAQIPESERKRLRSLQFLDELEELKVMQTHYILMKAQWHHHHHH	soluble
MLAAYRGRVMTRIAVELSLLTFVRSSELRFARWDEFDFDKSLWRIPAKREEIKGVRYSYRGMKMKEEHIVPLSRQAMILLEQLKQISGDKELLFPGDHDATKVMSENTVNSALRAMGYDTKTEVCGHGFRTMARGALGESGLWSEDAIERQLSHSERNSVRAAYIHTSEHLDERRLMVQWWADYLDANKIKPLEHHHHHH	not soluble
MSLGSMGFIESEVAVVYGRIVEGFRAPYKEDLYFKTVIVPGFSDGHMHTQVVDAGLEPSRVWSNSYEWLETRRLRVDEAAVRSDLDLSSRLAAAAFSRSLLEGVTLVAATGRLSANVRGWLSLTSRPRAIFLPTVMDRAGWPSIREVEVEIERLEGLLRDGLAKIGVFVHSLGTAKPESVRRALQTAARRRSIMGMHLSEGLPEAGRLVDVLGRGPYPARIVAVHCMEVEDLPTGVRCVSCPASNQILYRRTRPTLEGVDGFGSDWPLLIGTIARHLPLINKLYPGRLQEILYKATIGGYRAYLALHDGDFVAYDASLEDVLAGRALPVWVSVAGKPAVVEGRLSGSGYGYGEVLSIIRRLIKEALEKHGDGSLPYIPDVESMYEASLALEGGPRSEGHHHHHH	not soluble
MGSDKIHHHHHHVKKLELYTGTEQGKPAIGIRLGGEASIQDLLDLWQPLCDDSELFKSYAAGNHATCRGCLHNCCQTAYVIPDLISFKKMAAHLHLTYKEFLSADFFDAEKLEAGIVRMKPNPCIFLQDNICSIYPLRSLICRFYICCQLMGDCEQLIYSICWSGSAATQLFAEQEGLINSKGSGALSSFDLMFKRLMEEYRFDPRVQLFLQANDYYDIPLSAFTAADI	not soluble
MPVQPPSKDTEEMEAEGDSAAEMNGEEEESEEERSGSQTESEEESSEMDDEDYERRRSECVSEMLDLEKQFSELKEKLFRERLSQLRLRLEEVGAERAPEYTEPLGGLQRSLKIRIQVAGIYKGFCLDVIRNKYECELQGAKQHLESEKLLLYDTLQGELQERIQRLEEDRQSLDLSSEWWDDKLHARGSSRSWDSLPPSKRKKAPLVSGPYIVYMLQEIDILEDWTAIKKARAAVSPQKRKSDGP	soluble
KVSSQSEDSSIKLIQITDTHLFAAEDGSLLSVNTADSFAAVVAAIGEEQVEFDAILATGDISQDHTPESYQRFVRGIQPLKKACYWLPGNHDYKPSMHSVLPTQQIQAVEHVLLGEHWQVVLLDSQVVGVPHGKLSEQQLQLLDNKLTEYPERHTLVLLHHHPLLVGSAWLDQHTLKESERFWDVVAKHSNVKAILCGHVHQDMDRIHLGARVMATPSTCVQFKPNSQDFALDNCSPGWRELTLHADGQVSTQVKRLKQGRFLPDFNSNGY	soluble
